Test results: the Human Domainome abundance scans (Beltran et al. 2025)
± gives the uncertainty stated by the source.

B1: 1-phosphatidylinositol 4,5-bisphosphate phosphodiesterase gamma-2, residues 772 to 827; numbered along this chain, P16885 (parent)
chain: RTVKALYDYKAKRSDELSFCRGALIHNVSKEPGGWWKGDYGTRIQQYFPSNYVEDI

Variants of: B1
Test: abundance fitness (aPCA) (normalised: wild type 0, dead -1); higher = more abundant; growth selection in yeast, the domain comes from the species named
Conditions: Homo sapiens
Work on RTVKALYDYKAKRSDELSFCRGALIHNVSKEPGGWWKGDEGTRIQQYFPSNYVEDI [Y40E] yielded an abundance fitness of -0.419 ± 0.26.
Variant RTVKALYDYKAKRSDELSFCRGALIHNVSKEPGGWWKGDGGTRIQQYFPSNYVEDI [Y40G] has an abundance fitness of -0.864 ± 0.085.
RTVKALYDYKAKRSDELSFCRGALIHNVSKEPGGWWKGDIGTRIQQYFPSNYVEDI [Y40I] showed an abundance fitness of 0.107 ± 0.12.
RTVKALYDYKAKRSDELSFCRGALIHNVSKEPGGWWKGDDGTRIQQYFPSNYVEDI [Y40D] showed an abundance fitness of -0.711 ± 0.47.
In the case of RTVKALYDYKAKRSDELSFCRGALIHNVSKEPGGWWKGDNGTRIQQYFPSNYVEDI [Y40N], the abundance fitness is reported as -0.284 ± 0.098.
With RTVKALYDYKAKRSDELSFCRGALIHNVSKEPGGWWKGDMGTRIQQYFPSNYVEDI [Y40M] the abundance fitness was -0.336 ± 0.32.
Work on RTVKALYDYKAKRSDELSFCRGALIHNVSKEPGGWWKGDQGTRIQQYFPSNYVEDI [Y40Q] yielded an abundance fitness of -0.312 ± 0.063.
With RTVKALYDYKAKRSDELSFCRGALIHNVSKEPGGWWKGDRGTRIQQYFPSNYVEDI [Y40R] the abundance fitness was -0.498 ± 0.067.
RTVKALYDYKAKRSDELSFCRGALIHNVSKEPGGWWKGDHGTRIQQYFPSNYVEDI [Y40H] gave an abundance fitness of 0.031 ± 0.17.
For RTVKALYDYKAKRSDELSFCRGALIHNVSKEPGGWWKGDAGTRIQQYFPSNYVEDI [Y40A], the abundance fitness was -0.3 ± 0.13.
Work on RTVKALYDYKAKRSDELSFCRGALIHNVSKEPGGWWKGDTGTRIQQYFPSNYVEDI [Y40T] yielded an abundance fitness of -0.265 ± 0.09.
In the case of RTVKALYDYKAKRSDELSFCRGALIHNVSKEPGGWWKGDVGTRIQQYFPSNYVEDI [Y40V], the abundance fitness is reported as -0.216 ± 0.069.
In the case of RTVKALYDYKAKRSDELSFCRGALIHNVSKEPGGWWKGDCGTRIQQYFPSNYVEDI [Y40C], the abundance fitness is reported as -0.061 ± 0.089.
RTVKALYDYKAKRSDELSFCRGALIHNVSKEPGGWWKGDKGTRIQQYFPSNYVEDI [Y40K] showed an abundance fitness of 0.189 ± 0.11.
Work on RTVKALYDYKAKRSDELSFCRGALIHNVSKEPGSWWKGDYGTRIQQYFPSNYVEDI [G34S] yielded an abundance fitness of -0.129 ± 0.051.
Variant RTVKALYDYKAKRSDELSFCRGALIHNVSKEPGWWWKGDYGTRIQQYFPSNYVEDI [G34W] has an abundance fitness of -0.445 ± 0.12.
Variant RTVKALYDYKAKRSDELSFCRGALIHNVSKEPGYWWKGDYGTRIQQYFPSNYVEDI [G34Y] has an abundance fitness of -0.164 ± 0.15.
Variant RTVKALYDYKAKRSDELSFCRGALIHNVSKEPGPWWKGDYGTRIQQYFPSNYVEDI [G34P] has an abundance fitness of 0.01 ± 0.071.
RTVKALYDYKAKRSDELSFCRGALIHNVSKEPGTWWKGDYGTRIQQYFPSNYVEDI [G34T] showed an abundance fitness of 0.014 ± 0.088.
RTVKALYDYKAKRSDELSFCRGALIHNVSKEPGRWWKGDYGTRIQQYFPSNYVEDI [G34R] showed an abundance fitness of -0.06 ± 0.069.
In the case of RTVKALYDYKAKRSDELSFCRGALIHNVSKEPGNWWKGDYGTRIQQYFPSNYVEDI [G34N], the abundance fitness is reported as 0.138 ± 0.092.
Variant RTVKALYDYKAKRSDELSFCRGALIHNVSKEPGQWWKGDYGTRIQQYFPSNYVEDI [G34Q] has an abundance fitness of -0.094 ± 0.064.
Work on RTVKALYDYKAKRSDELSFCRGALIHNVSKEPGVWWKGDYGTRIQQYFPSNYVEDI [G34V] yielded an abundance fitness of -0.032 ± 0.059.
Variant RTVKALYDYKAKRSDELSFCRGALIHNVSKEPGGWWKADYGTRIQQYFPSNYVEDI [G38A] has an abundance fitness of -0.83 ± 0.27.
RTVKALYDYKAKRSDELSFCRGALIHNVSKEPGGWWKTDYGTRIQQYFPSNYVEDI [G38T] showed an abundance fitness of -0.821 ± 0.47.
Work on RTVKALYDYKAKRSDELSFCRGALIHNVSKEPGGWWKRDYGTRIQQYFPSNYVEDI [G38R] yielded an abundance fitness of -0.959 ± 0.14.
Variant RTVKALYDYKAKRSDELSFCRGALIHNVSKEPGGWWKWDYGTRIQQYFPSNYVEDI [G38W] has an abundance fitness of -0.803 ± 0.19.
RTVKALYDYKAKRSDELSFCRGALIHNVSKEPGGWWKVDYGTRIQQYFPSNYVEDI [G38V] gave an abundance fitness of -0.851 ± 0.2.
With RTVKALYDYKAKRSDELSFCRGALIHNVSKEPGGWWKKDYGTRIQQYFPSNYVEDI [G38K] the abundance fitness was -1.01 ± 0.44.
RTVKALYDYKAKRSDELSFCRGALIHNVSKEPGGWWKSDYGTRIQQYFPSNYVEDI [G38S] gave an abundance fitness of -1 ± 0.18.
With RTVKALYDYKAKRSDELSFCRGALIHNVSKEPGGWWKIDYGTRIQQYFPSNYVEDI [G38I] the abundance fitness was -0.765 ± 0.47.
With RTVKALYDYKAKRSDELSFCRGALIHNVSKEPGGWWKEDYGTRIQQYFPSNYVEDI [G38E] the abundance fitness was -0.595 ± 0.17.
RTVKALYDYKAKRSDELSFCRGALIHNVSKEPGGWWKLDYGTRIQQYFPSNYVEDI [G38L] showed an abundance fitness of -1.11 ± 0.2.
Variant RTVKALYDYKAKRSDELSFCRGALIHNVSKEPGGWWKGQYGTRIQQYFPSNYVEDI [D39Q] has an abundance fitness of -0.958 ± 0.21.
Variant RTVKALYDYKAKRSDELSFCRGALIHNVSKEPGGWWKGEYGTRIQQYFPSNYVEDI [D39E] has an abundance fitness of -0.798 ± 0.17.
Work on RTVKALYDYKAKRSDELSFCRGALIHNVSKEPGGWWKGFYGTRIQQYFPSNYVEDI [D39F] yielded an abundance fitness of -0.486 ± 0.49.
In the case of RTVKALYDYKAKRSDELSFCRGALIHNVSKEPGGWWKGVYGTRIQQYFPSNYVEDI [D39V], the abundance fitness is reported as -0.882 ± 0.18.
RTVKALYDYKAKRSDELSFCRGALIHNVSKEPGGWWKGWYGTRIQQYFPSNYVEDI [D39W] showed an abundance fitness of -0.82 ± 0.2.
RTVKALYDYKAKRSDELSFCRGALIHNVSKEPGGWWKGTYGTRIQQYFPSNYVEDI [D39T] showed an abundance fitness of -0.418 ± 0.21.
Variant RTVKALYDYKAKRSDELSFCRGALIHNVSKEPGGWWKGYYGTRIQQYFPSNYVEDI [D39Y] has an abundance fitness of -0.31 ± 0.46.
In the case of RTVKALYDYKAKRSDELSFCRGALIHNVSKEPGGWWKGRYGTRIQQYFPSNYVEDI [D39R], the abundance fitness is reported as -1.01 ± 0.084.
RTVKALYDYKAKRSDELSFCRGALIHNVSKEPGGWWKGAYGTRIQQYFPSNYVEDI [D39A] gave an abundance fitness of -1.01 ± 0.14.
Work on RTVKALYDYKAKRSDELSFCRGALIHNVSKEPGGWWKGSYGTRIQQYFPSNYVEDI [D39S] yielded an abundance fitness of -0.825 ± 0.077.
RTVKALYDYKAKRSDELSFCRGALIHNVSKEPGGWWKGKYGTRIQQYFPSNYVEDI [D39K] showed an abundance fitness of -0.74 ± 0.5.
RTVKALYDYKAKRSDELSFCRGALIHNVSKEPGGWWKGPYGTRIQQYFPSNYVEDI [D39P] gave an abundance fitness of -0.851 ± 0.33.
Work on RTVKALYDYKAKRSDELSFCRGALIHNVSKEPGGWWKGGYGTRIQQYFPSNYVEDI [D39G] yielded an abundance fitness of -0.864 ± 0.13.
For RTVKALYDYKAKRSDELSFCRGALIHNVSKEPGGWWKGMYGTRIQQYFPSNYVEDI [D39M], the abundance fitness was -0.924 ± 0.36.
